From US20230309566A1 come the findings set out here.

Ends that are not written are not given here.

This assay concerns the target Sf9 cells expressing receptor A or receptor B. In words: cell-based or functional assay.

Consider QPPLPRY-NH2 [QPPLPRY-NH2 (SEQ ID NO: 3)], for which the EC50 of calcium fluorescence (FLIPR Calcium 6) in Sf9 cells expressing receptor A or receptor B turned out to be 1.4 nM.
The figure for QPPVPRY-NH2 [QPPVPRY-NH2 (SEQ ID NO: 4)] is 12.7 nM.
